Experiments:
[1] = target: His6-importin α2/GST-importin β1 heterodimer (mouse), pre-dimerized (mouse, UniProt P52293 1-529; P70168 1-876)
[2] = target: GST-exportin-1-His6/Ran-GTPγS complex, preformed (UniProt O14980 1-1071; P62826 1-216)
Sequence of GST-exportin-1-His6/Ran-GTPγS complex, preformed (O14980 whole entry, one chain of several): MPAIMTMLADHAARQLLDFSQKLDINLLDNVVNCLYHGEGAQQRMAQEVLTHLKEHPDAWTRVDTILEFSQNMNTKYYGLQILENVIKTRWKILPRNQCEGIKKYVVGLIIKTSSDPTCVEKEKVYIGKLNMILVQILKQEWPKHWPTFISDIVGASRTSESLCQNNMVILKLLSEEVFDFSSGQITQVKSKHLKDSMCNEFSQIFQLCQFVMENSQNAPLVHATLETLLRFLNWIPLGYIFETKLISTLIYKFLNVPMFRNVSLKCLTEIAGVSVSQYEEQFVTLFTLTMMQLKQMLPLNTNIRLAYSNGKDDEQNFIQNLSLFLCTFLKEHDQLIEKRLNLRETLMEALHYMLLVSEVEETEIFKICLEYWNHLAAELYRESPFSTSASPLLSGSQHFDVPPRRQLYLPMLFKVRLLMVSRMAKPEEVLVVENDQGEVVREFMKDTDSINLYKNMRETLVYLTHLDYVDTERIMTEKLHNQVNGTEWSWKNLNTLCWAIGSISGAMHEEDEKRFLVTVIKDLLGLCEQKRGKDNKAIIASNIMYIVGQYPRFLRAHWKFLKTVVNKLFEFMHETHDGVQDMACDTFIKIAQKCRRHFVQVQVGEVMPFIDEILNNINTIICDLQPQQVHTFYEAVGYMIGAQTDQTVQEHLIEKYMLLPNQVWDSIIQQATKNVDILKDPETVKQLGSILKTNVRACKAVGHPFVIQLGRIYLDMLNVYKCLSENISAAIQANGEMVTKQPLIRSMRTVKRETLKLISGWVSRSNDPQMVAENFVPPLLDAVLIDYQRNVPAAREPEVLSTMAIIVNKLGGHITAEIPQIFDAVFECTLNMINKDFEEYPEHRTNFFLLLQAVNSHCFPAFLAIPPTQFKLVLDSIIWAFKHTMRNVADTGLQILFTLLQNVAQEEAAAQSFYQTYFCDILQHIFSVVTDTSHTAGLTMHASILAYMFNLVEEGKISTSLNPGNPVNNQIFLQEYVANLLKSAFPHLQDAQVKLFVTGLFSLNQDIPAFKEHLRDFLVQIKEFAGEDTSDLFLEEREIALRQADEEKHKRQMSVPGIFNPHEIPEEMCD

B1: Biotinylated Hendra virus V protein (natural protein)
chain: MDKLDLVNDGLDIIDFIQKNQKEIQKTYGRSSIQQPSTKDRTRAWEDFLQSTSGEHEQAEGGMPKNDGGTEGRNVEDLSSVTSSDGTIGQRVSNTRAWAEDPDDIQLDPMVTDVVYHDHGGECTGHGPSSSPERGWSYHMSGTHDGNVRAVPDTKVLPNAPKTTVPEEVREIDLIGLEDKFASAGLNPAAVPFVPKNQSTPTEEPPVIPEYYYGSGRRGDLSKSPPRGNVNLDSIKIYTSDDEDENQLEYEDEFAKSSSEVVIDTTPEDNDSINQEEVVGDPSDQGLEHPFPLGKFPEKEETPDVRRKDSLMQDSCKRGGVPKRLPMLSEEFECSGSDDPIIQELEREGSHPGGSLRLREPPQSSGNSRNQPDRQLKTGDAASPGGVQRPGTPMPKSRIMPIKKGHRREVSICWDGRRAWVEEWCNPVCSRITPQPRKQECYCGECPTECSQCCHEE
- Kd [1]: 14.9 nM
- Kd [2]: 9.2 nM

Reference: publication PMC5762688 (2018)
